Reference: article PMC7504508
Read-outs that look alike come from different tables or passages of the source.

Columns and labels:
[1] = target: GST-Sumo fusion protein of the perch Connexin 35 C-terminal domain (amino acids 251-304), wild type (perch)
[2] = target: GST-Sumo fusion protein of the perch Connexin 35 C-terminal domain (amino acids 251-304), wild type (perch); assay: SPR; GST-Sumo-Cx35 fusion proteins captured by immobilised anti-GST antibodies on a CM5 chip (Biacore 2000); calmodulin as analyte, 3 nM to 30 µM; GST-Sumo reference flowcell subtracted; 1 mM free Ca2+, 0.5 mM free Mg2+, 140 mM KCl, 10 mM MOPS pH 7.2, 0.05% Tween 20; first order ligand binding …
[3] = target: GST-Sumo fusion protein of the perch Cx35 C-terminal domain (251-304) I277A (perch); assay: as above
[4] = target: GST-Sumo fusion protein of the perch Cx35 C-terminal domain (251-304) R268A (perch); assay: as above
[5] = target: GST-Sumo fusion protein of the perch Cx35 C-terminal domain (251-304) V267A (perch); assay: as above
[6] = target: GST-Sumo fusion protein of the perch Cx35 C-terminal domain (251-304) V270A, Q271A (perch); assay: as above
[7] = target: GST-Sumo fusion protein of the perch Connexin 35 C-terminal domain (amino acids 251-304), wild type (perch); assay: as above; remark: listed apart in the source

reduction of Neurobiotin tracer coupling by 5 µM ionomycin in transiently transfected HeLa cells (full-length untagged Cx35 wild type in the cells) [1]: 67%
Kd [2]: 1380 nM
Kd [3]: 1260 nM
Kd [4]: 2460 nM
Kd [5]: 5390 nM
Kd [6]: 1190 nM
Kd [7]: 1430 nM
Substance: calmodulin (from UniProt P0DP23 1-149) (natural protein)
